Laboratory results published in patent publication US20240116985A1, “STAPLED PEPTIDES AND METHODS THEREOF” (priority 2020, published 2024).
Starred links: 1 amine or outer side, 2 acyl side, 3 side chain; linkers in the order of their positions; H or OH if unused. Positions of bridges follow the written chain, without caps; N, C: chain ends. Non-standard residues stand in square brackets, D forms with d. Primed or numbered codes have the meaning given here. PyrS2″ = (S)-3-amino-1-((pent-4-en-1-yloxy)carbonyl)pyrrolidine-3-carboxylic acid (stapling residue), C=CCCCOC(=O)N1CC[C@@](N[*:1])(C(=O)[*:2])C1; B5(16) = 2-amino-2-(pent-4-en-1-yl)hept-6-enoic acid = 2,2-bis(4-pentenyl)glycine (stitching residue), C=CCCCC(CCCC=C)(N[*:1])C(=O)[*:2]; B5(4) = 2,2-bis(4-pentenyl)glycine = 2-amino-2-(pent-4-en-1-yl)hept-6-enoic acid (stitching residue), C=CCCCC(CCCC=C)(N[*:1])C(=O)[*:2]; B5(5) = 2,2-bis(4-pentenyl)glycine, 2-amino-2-(pent-4-en-1-yl)hept-6-enoic acid (stitching residue), C=CCCCC(CCCC=C)(N[*:1])C(=O)[*:2]; PyrS2 = (S)-3-amino-1-((pent-4-en-1-yloxy)carbonyl)pyrrolidine-3-carboxylic acid, C=CCCCOC(=O)N1CC[C@@](N[*:1])(C(=O)[*:2])C1; Phe(3-COOH) = N[C@@H](Cc1cccc(C(=O)O)c1)C(=O)O; Phe(2-Cl) = N[C@@H](Cc1ccccc1Cl)C(=O)O; Bta = N[C@@H](Cc1csc2ccccc12)C(=O)O; αAllylPro = C=CC[C@@]1(C(=O)O)CCCN1; tBuAla = CC(C)(C)C[C@H](N)C(=O)O; Cha = N[C@@H](CC1CCCCC1)C(=O)O

B1: I-1044 (peptide)
peptide: Ac-[αAllylPro]D[Cha][B5(16)]DDAAFS[PyrS2″][Phe(2-Cl)][Bta]Q-NH2
modifications: staple 1-4, 4-11
B2: I-1050 (peptide)
peptide: Ac-[αAllylPro]D[Cha][B5(5)]DDAAFS[PyrS2][Phe(2-Cl)][Bta]S-NH2
modifications: staple 1-4, 4-11
B3: I-1030 (peptide)
peptide: Ac-[αAllylPro]D[tBuAla][B5(5)]EDAAFN[PyrS2″][Phe(2-Cl)][Bta][dT]-NH2
modifications: staple 1-4, 4-11
B4: I-1035 (peptide)
peptide: Ac-[αAllylPro]D[tBuAla][B5(5)]DDAAFL[PyrS2″][Phe(2-Cl)][Bta][dT]-NH2
modifications: staple 1-4, 4-11
B5: I-1029 (peptide)
peptide: Ac-[αAllylPro]E[tBuAla][B5(5)]DDAAFN[PyrS2″][Phe(2-Cl)][Bta][dT]-NH2
modifications: staple 1-4, 4-11
B6: I-2029 (peptide)
peptide: Ac-[αAllylPro]D[tBuAla][B5(5)]D[Phe(3-COOH)]AAFS[PyrS2″][Phe(2-Cl)][Bta]F-NH2
modifications: staple 1-4, 4-11
B7: I-2024 (peptide)
peptide: Ac-[αAllylPro]D[tBuAla][B5(5)]D[Phe(3-COOH)]AAFA[PyrS2″][Phe(2-Cl)][Bta]V-NH2
modifications: staple 1-4, 4-11
B8: I-2028 (peptide)
peptide: Ac-[αAllylPro]D[tBuAla][B5(5)]D[Phe(3-COOH)]AAFS[PyrS2″][Phe(2-Cl)][Bta]V-NH2
modifications: staple 1-4, 4-11
B9: I-2023 (peptide)
peptide: Ac-[αAllylPro]D[tBuAla][B5(5)]D[Phe(3-COOH)]AAFA[PyrS2″][Phe(2-Cl)][Bta]A-NH2
modifications: staple 1-4, 4-11
B10: I-2026 (peptide)
peptide: Ac-[αAllylPro]D[tBuAla][B5(5)]D[Phe(3-COOH)]AAFA[PyrS2″][Phe(2-Cl)][Bta][dA]-NH2
modifications: staple 1-4, 4-11

These binders were tested against full-length beta-Catenin (Uniprot ID P35222) (Homo sapiens (Human)) (UniProt P35222) (assay: cell-based or functional assay).

Row | Binder | DLD1 4% Abs IC50 | DLD1 reporter assay Abs IC50
1 | B1 | 14.5 µM | 20 µM
2 | B2 | – | 11.2 µM
3 | B3 | – | > 20 µM
4 | B4 | – | > 20 µM
5 | B5 | – | > 20 µM

What follows are binders tested against Bcat-Halo (UniProt P35222) (assay: NanoBRET (Abs IC50) in HEK293 cells; Bcat-Halo / TCF4-Luc).
Sequence of Bcat-Halo (P35222 whole entry): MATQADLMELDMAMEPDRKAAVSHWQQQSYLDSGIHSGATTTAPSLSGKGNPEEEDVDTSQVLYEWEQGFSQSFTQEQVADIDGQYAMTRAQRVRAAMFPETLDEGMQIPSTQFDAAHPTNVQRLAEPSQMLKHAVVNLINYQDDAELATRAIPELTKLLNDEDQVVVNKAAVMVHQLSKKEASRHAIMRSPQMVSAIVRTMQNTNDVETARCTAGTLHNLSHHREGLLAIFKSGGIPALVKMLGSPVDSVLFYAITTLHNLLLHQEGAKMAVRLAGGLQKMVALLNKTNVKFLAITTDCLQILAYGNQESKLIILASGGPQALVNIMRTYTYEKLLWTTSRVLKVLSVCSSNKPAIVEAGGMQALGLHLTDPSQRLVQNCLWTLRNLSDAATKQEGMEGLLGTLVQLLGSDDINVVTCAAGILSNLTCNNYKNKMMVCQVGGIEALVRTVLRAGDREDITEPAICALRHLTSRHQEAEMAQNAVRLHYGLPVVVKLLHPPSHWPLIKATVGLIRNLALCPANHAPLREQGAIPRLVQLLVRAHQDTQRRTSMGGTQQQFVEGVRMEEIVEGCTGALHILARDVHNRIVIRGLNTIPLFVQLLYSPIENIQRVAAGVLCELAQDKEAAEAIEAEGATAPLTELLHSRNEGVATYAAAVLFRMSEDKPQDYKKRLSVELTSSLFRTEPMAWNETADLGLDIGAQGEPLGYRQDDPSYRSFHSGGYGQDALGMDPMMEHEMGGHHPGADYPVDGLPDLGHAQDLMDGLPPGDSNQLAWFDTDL

Row | Binder | IC50
6 | B6 | 26.2 µM
7 | B7 | 17.9 µM
8 | B8 | 17.6 µM
9 | B9 | 7.8 µM
10 | B10 | 9.7 µM

These binders were tested against full-length beta-Catenin (Uniprot ID P35222) (Homo sapiens (Human)) (UniProt P35222) (assay: FP competition; full-length beta-catenin + 5FAM-TCF4(10-53) probe).
Target sequence in this assay (P35222 whole entry, one chain of several): as the sequence (P35222 whole entry) above

Row | Binder | IC50
11 | B6 | 0.035 µM
12 | B7 | 0.078 µM
13 | B8 | 0.032 µM
14 | B9 | 0.032 µM
15 | B10 | 0.026 µM

Each binder was assayed against Bcat-Halo (UniProt P35222) (assay: NanoBRET absolute IC50 in HEK293 cells; Bcat-Halo, competitor TCF4-Luc).

Row | Binder | IC50
16 | B3 | > 20 µM
17 | B4 | 10.2 µM
18 | B5 | > 20 µM

The binders below were run against full-length beta-Catenin (Uniprot ID P35222) (Homo sapiens (Human)) (UniProt P35222) (assay: fluorescence polarization competition; full-length beta-catenin, competitor 5FAM-TCF4 10-53).
Target sequence in this assay (P35222 whole entry, one chain of several): as the sequence (P35222 whole entry) above

Row | Binder | IC50
19 | B3 | 0.507 µM
20 | B4 | 0.021 µM
21 | B5 | 0.823 µM

Each binder was assayed against full-length beta-Catenin (Uniprot ID P35222) (Homo sapiens (Human)) (UniProt P35222) (assay: fluorescence polarization competition; full-length beta-catenin with 5FAM-TCF4(10-53) probe, peptide titrated).
Target sequence in this assay (P35222 whole entry, one chain of several): as the sequence (P35222 whole entry) above

Row | Binder | IC50
22 | B1 | 0.005 µM
23 | B2 | 0.005 µM

Each binder was assayed against Bcat-Halo (UniProt P35222) (assay: NanoBRET Abs IC50, HEK293 cells transfected with Bcat-Halo and TCF4-Luc (competitor: TCF4-Luc); cellular assay).

Row | Binder | IC50
24 | B1 | 17.6 µM
25 | B2 | 24.8 µM
26 | B3 | > 20 µM
27 | B4 | 10.2 µM
28 | B5 | > 20 µM

Each binder was assayed against full-length beta-Catenin (Uniprot ID P35222) (Homo sapiens (Human)) (UniProt P35222) (assay: fluorescence polarization competition; 10 nM full-length beta-catenin + 10 nM 5FAM-TCF4 10-53 as competitor probe).
Target sequence in this assay (P35222 2-781 limits assumed): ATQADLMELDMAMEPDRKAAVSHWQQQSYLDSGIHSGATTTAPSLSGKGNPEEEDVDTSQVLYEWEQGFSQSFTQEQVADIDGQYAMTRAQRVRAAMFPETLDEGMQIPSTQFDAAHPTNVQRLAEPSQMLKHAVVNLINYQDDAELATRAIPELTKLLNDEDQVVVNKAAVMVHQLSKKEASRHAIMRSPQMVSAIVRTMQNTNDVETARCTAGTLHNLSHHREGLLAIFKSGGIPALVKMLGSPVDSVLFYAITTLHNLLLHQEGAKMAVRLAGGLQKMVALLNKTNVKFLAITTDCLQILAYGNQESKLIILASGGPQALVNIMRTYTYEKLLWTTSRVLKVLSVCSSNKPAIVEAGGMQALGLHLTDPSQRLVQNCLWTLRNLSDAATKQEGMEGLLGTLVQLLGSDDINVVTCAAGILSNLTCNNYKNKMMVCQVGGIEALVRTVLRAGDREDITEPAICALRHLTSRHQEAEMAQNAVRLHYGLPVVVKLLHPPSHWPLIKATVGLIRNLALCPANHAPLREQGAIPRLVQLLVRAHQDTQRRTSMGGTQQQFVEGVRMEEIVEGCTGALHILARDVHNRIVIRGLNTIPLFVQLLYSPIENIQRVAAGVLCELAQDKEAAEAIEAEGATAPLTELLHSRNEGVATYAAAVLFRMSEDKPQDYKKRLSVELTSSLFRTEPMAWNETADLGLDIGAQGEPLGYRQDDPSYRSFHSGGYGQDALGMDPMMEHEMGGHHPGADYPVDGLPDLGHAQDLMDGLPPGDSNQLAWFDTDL

Row | Binder | EC50
29 | B1 | 0.005 µM
30 | B2 | 0.005 µM
31 | B3 | 0.507 µM
32 | B4 | 0.021 µM
33 | B5 | 0.823 µM
